{"source": "patent US9468682B2", "about": "“Compositions and methods for enhancing penetration of biologically active substances into tissues or organs” (Joint-stock company “High Tech”, priority 2013, dated 2016)", "key": {"[1]": {"assay": "Delivery through skin and mucous membranes in animals", "assay_type": "in vivo", "conditions": "with ammonium sulfate; rats and guinea pigs"}, "[2]": {"assay": "Franz diffusion cell skin permeability for insulin, antibiotics and mesotherapy components", "conditions": "FIG. 1; donor insulin 5 IU/ml or 0.25 mg/ml; HPLC", "excerpt": "The receptor solution aliquots were collected at different intervals and analyzed using HPLC."}, "[3]": {"assay": "In vitro skin permeability, Franz diffusion cell, 3H-labeled substances", "conditions": "Table 4", "description": "The vertical Franz diffusion cell was used (PermeGear, Bethlehem, USA) with the effective diffusion surface of 2 cm^2.\nThe experiments were carried out using the skin of male species of Sprague-Dawley rats, weight 110-120 g, taken from the front abdominal wall. Hair and adipose tissue were removed from the skin; the skin was soaked in normal saline and placed into the diffusion cell. The following solutions labeled with ^3H in accordance with the standard method (Klimova et. al. 1993) were added into the donor chamber: complex of collagenolytic digestive protease from hydrobionts (Fermencol™, Table 3), Fe-superoxide dismutase from E. coli (Table 4) and fragments of rRNA 25-55 bases in length (Table 5)."}}}
{"molecule": "insulin", "values": [{"measurement": "Delivery through skin and mucous membranes", "setting": "[1]", "value": "Positive results"}, {"measurement": "Effect of further increase of ammonium sulfate concentration on insulin diffusion from donor to acceptor solution", "setting": "[2]", "value": "does not influence the effectiveness of insulin diffusion"}]}
{"molecule": "Fe-superoxide dismutase from E. coli: Fe-superoxide dismutase from E. coli, labeled with 3H (protein, UniProt P0AGD3 2-193, looked up, tritium (3H) label) Superoxide dismutase [Fe]: SFELPALPYAKDALAPHISAETIEYHYGKHHQTYVTNLNNLIKGTAFEGKSLEEIIRSSEGGVFNNAAQVWNHTFYWNCLAPNAGGEPTGKVAEAIAASFGSFADFKAQFTDAAIKNFGSGWTWLVKNSDGKLAIVSTSNAGTPLTTDATPLLTVDVWEHAYYIDYRNARPGYLEHFWALVNWEFVAKNLAA", "values": [{"measurement": "^3H-labeled marker in receptor medium, % from initial", "setting": "[3]; ammonium sulfate 0 M in donor medium, incubation 10 hrs", "value": 0.01, "unit": "%"}, {"measurement": "^3H-labeled marker in receptor medium, % from initial", "setting": "[3]; ammonium sulfate 0 M in donor medium, incubation 20 hrs", "value": 0.05, "unit": "%"}, {"measurement": "^3H-labeled marker in receptor medium, % from initial", "setting": "[3]; ammonium sulfate 0 M in donor medium, incubation 30 hrs", "value": 0.07, "unit": "%"}, {"measurement": "^3H-labeled marker in receptor medium, % from initial", "setting": "[3]; ammonium sulfate 0 M in donor medium, incubation 40 hrs", "value": 0.11, "unit": "%"}, {"measurement": "^3H-labeled marker in receptor medium, % from initial", "setting": "[3]; ammonium sulfate 0 M in donor medium, incubation 60 hrs", "value": 0.34, "unit": "%"}, {"measurement": "^3H-labeled marker in receptor medium, % from initial", "setting": "[3]; ammonium sulfate 0.1 M in donor medium, incubation 10 hrs", "value": 5.31, "unit": "%"}, {"measurement": "^3H-labeled marker in receptor medium, % from initial", "setting": "[3]; ammonium sulfate 0.1 M in donor medium, incubation 20 hrs", "value": 10.00, "unit": "%"}, {"measurement": "^3H-labeled marker in receptor medium, % from initial", "setting": "[3]; ammonium sulfate 0.1 M in donor medium, incubation 30 hrs", "value": 12.06, "unit": "%"}, {"measurement": "^3H-labeled marker in receptor medium, % from initial", "setting": "[3]; ammonium sulfate 0.1 M in donor medium, incubation 40 hrs", "value": 17.99, "unit": "%"}, {"measurement": "^3H-labeled marker in receptor medium, % from initial", "setting": "[3]; ammonium sulfate 0.1 M in donor medium, incubation 60 hrs", "value": 20.11, "unit": "%"}, {"measurement": "^3H-labeled marker in receptor medium, % from initial", "setting": "[3]; ammonium sulfate 0.2 M in donor medium, incubation 10 hrs", "value": 5.67, "unit": "%"}, {"measurement": "^3H-labeled marker in receptor medium, % from initial", "setting": "[3]; ammonium sulfate 0.2 M in donor medium, incubation 20 hrs", "value": 12.56, "unit": "%"}, {"measurement": "^3H-labeled marker in receptor medium, % from initial", "setting": "[3]; ammonium sulfate 0.2 M in donor medium, incubation 30 hrs", "value": 17.90, "unit": "%"}, {"measurement": "^3H-labeled marker in receptor medium, % from initial", "setting": "[3]; ammonium sulfate 0.2 M in donor medium, incubation 40 hrs", "value": 27.60, "unit": "%"}, {"measurement": "^3H-labeled marker in receptor medium, % from initial", "setting": "[3]; ammonium sulfate 0.2 M in donor medium, incubation 60 hrs", "value": 35.11, "unit": "%"}, {"measurement": "^3H-labeled marker in receptor medium, % from initial", "setting": "[3]; ammonium sulfate 0.5 M in donor medium, incubation 10 hrs", "value": 7.80, "unit": "%"}, {"measurement": "^3H-labeled marker in receptor medium, % from initial", "setting": "[3]; ammonium sulfate 0.5 M in donor medium, incubation 20 hrs", "value": 10.81, "unit": "%"}, {"measurement": "^3H-labeled marker in receptor medium, % from initial", "setting": "[3]; ammonium sulfate 0.5 M in donor medium, incubation 30 hrs", "value": 16.94, "unit": "%"}, {"measurement": "^3H-labeled marker in receptor medium, % from initial", "setting": "[3]; ammonium sulfate 0.5 M in donor medium, incubation 40 hrs", "value": 31.00, "unit": "%"}, {"measurement": "^3H-labeled marker in receptor medium, % from initial", "setting": "[3]; ammonium sulfate 0.5 M in donor medium, incubation 60 hrs", "value": 35.30, "unit": "%"}, {"measurement": "^3H-labeled marker in receptor medium, % from initial", "setting": "[3]; ammonium sulfate 1.0 M in donor medium, incubation 10 hrs", "value": 7.67, "unit": "%"}, {"measurement": "^3H-labeled marker in receptor medium, % from initial", "setting": "[3]; ammonium sulfate 1.0 M in donor medium, incubation 20 hrs", "value": 10.33, "unit": "%"}, {"measurement": "^3H-labeled marker in receptor medium, % from initial", "setting": "[3]; ammonium sulfate 1.0 M in donor medium, incubation 30 hrs", "value": 16.74, "unit": "%"}, {"measurement": "^3H-labeled marker in receptor medium, % from initial", "setting": "[3]; ammonium sulfate 1.0 M in donor medium, incubation 40 hrs", "value": 31.00, "unit": "%"}, {"measurement": "^3H-labeled marker in receptor medium, % from initial", "setting": "[3]; ammonium sulfate 1.0 M in donor medium, incubation 60 hrs", "value": 35.11, "unit": "%"}]}
